According to patent publication US20080131497A1, “Formulations of DNase and Methods of Use Thereof” (priority 2006, published 2008):
Substitutions are numbered along the chain they refer to.

Columns and labels:
[1] = administered by inhalation, CF patients; cited from earlier work
[2] = tested on: colony forming units (CFU); conditions: administered by inhalation, CF patients; cited from earlier work
DNA [3] = experiment: Enzymatic activity of human DNase forms, methyl green (MG) assay; type: biochemical
Description: Kurnick, Arch. Biochem. 29:41 (1950). […] Thus, by combining the purified deamidated DNases and the purified non-deamidated DNase of the present invention in various proportions, it is possible to prepare pharmaceutical compositions of human DNase having any desired specific activity in the range between the specific activities of the individual components, as may be optimal for treating particular disorders.

DNA [4] = experiment: DNase viscosity assay (DNA digestion); type: biochemical; conditions: DNase 1 μg/mL, 2 mg/mL DNA, 1 mM Ca2+ and Mg2+
Description: At specific time points aliquots of samples were taken from the vials, diluted and analyzed for DNase activity. Enzymatic activity of DNase was determined by viscosity assay. DNA decomposition by DNase results in decrease of viscosity. DNase at 1 μg/mL normally can digest 2 mg/mL DNA resulting in decrease of viscosity from ˜25 cP (5 rpm) to 10 cP in ˜10 min (and to approaching 1 cP in longer time) in presence of 1 mM Ca^2+ and Mg^2+ ions. Kinetics of viscosity change due to degradation of DNA was measured by Brookfield D-II+ Pro viscosimeter at 5 rpm. Results showing increased stability for DNase when stored in the presence of empty liposomes or liposomal encapsulated antiinfective are presented in FIG. 2.
Activity was determined as a reciprocal value of a time to reduce viscosity in half, normalized to activity of standard DNase solution (A=T1/2^std/T1/2). The two curves in FIG. 3 illustrate an activity assay and how T1/2 is determined. The curves represent typical change in viscosity of DNA solution after DNase is added. v1 is viscosity at 1 minute, when the first measurement point is taken. T1/2 is the time interval after adding DNase required to reach viscosity level equal to half of v1.

DNA [5] = experiment: Enzymatic activity of doubly deamidated DNase; type: biochemical; conditions: deamidated at Asn 7 and Asn 74

## NC[C@H]1O[C@H](O[C@H]2[C@H](O)[C@@H](O[C@H]3O[C@H](CO)[C@@H](O)[C@H](N)[C@H]3O)[C@H](N)C[C@@H]2N)[C@H](N)C[C@@H]1O [tobramycin, reference compound]
[1]
  improvement in FEV1: approximately 10%
[2]
  reduction in colony forming units (CFU): about 2 log units

B1: deamidated human DNase: human DNase deamidated at the asparagine residue at position 74 of native mature human DNase (protein, UniProt P24855 23-282, looked up, variant N74D)
Deoxyribonuclease-1: LKIAAFNIQTFGETKMSNATLVSYIVQILSRYDIALVQEVRDSHLTAVGKLLDNLNQDAPDTYHYVVSEPLGRDSYKERYLFVYRPDQVSAVDSYYYDDGCEPCGNDTFNREPAIVRFFSRFTEVREFAIVPLHAAPGDAVAEIDALYDVYLDVQEKWGLEDVMLMGDFNAGCSYVRPSQWSSIRLWTSPTFQWLIPDSADTTATPTHCAYDRIVVAGMLLRGAVVPDSALPFNFQAAYGLSDQLAQAISDHYPVEVMLK
modifications: deamidation
notes: human DNase deamidated at the asparagine residue at position 74 of native mature human DNase
DNA [3]
  enzymatic activity compared to non-deamidated human DNase: just over half

B2: Pulmozyme: highly purified, commercially available solution of DNase (from Genentech); recombinant human DNase (protein, UniProt P24855 23-282, looked up)
Deoxyribonuclease-1: B1 Deoxyribonuclease-1 with D74N
[1]
  improvement in FEV1: approximately 10%

B3: DNase: recombinant human deoxyribonuclease I, an enzyme which selectively cleaves DNA; standard in viscosity assay (protein, UniProt P24855 23-282, looked up)
Deoxyribonuclease-1: B1 Deoxyribonuclease-1 with D74N
DNA [4]
  time for decrease of viscosity from ~25 cP (5 rpm) to 10 cP: ~10 min

B4: doubly deamidated DNase: human DNase deamidated at asparagine position 7 in addition to position 74 (protein, UniProt P24855 23-282, looked up, variant N7D N74D)
Deoxyribonuclease-1: B1 Deoxyribonuclease-1 with N7D
modifications: deamidation
DNA [5]
  enzymatic activity: enzymatically inactive
